Test results: patent US20160199445A1 (CENTRE NATIONAL DE LA RECHERCHE SCIENTIFIQUE, published 2016)

Target: T1, Purified Arp2/3 complex
T1 construct: Used in fluorescence anisotropy, pyrene-actin and TIRF assays
Assay: fluorescence anisotropy, competition with labelled ArpinA bound to purified Arp2/3 complex

- Kd: 1030 nM
B1: ArpinA peptide (residues 211-226 of full length Arpin), unlabelled synthetic peptide (peptide)
peptide: EIREQGDGAEDEEWDD
notes: Purchased from Proteogenix; also called Arpin Acidic peptide; Acidic peptide
